Experimental data taken from patent publication US8889621B2, “Inhibiting binding of FGF23 to the binary FGFR-Klotho complex for the treatment of hypophosphatemia” (New York University, priority 2009, dated 2014).
Entries after “also recorded” stand apart in the source; their conditions may differ.

Target: T1, FGFR1c-βKlotho-FGF21 (UniProt P11362+Q99N32)
T1 construct: the ectodomain of murine βKlotho (F53 to L995) was expressed in HEK293 cells; FLAG (C); made in house; host or cells: E. coli (FGFR1c, FGF21); HEK293 (βKlotho ectodomain)
T1 sequence (P11362 142-365): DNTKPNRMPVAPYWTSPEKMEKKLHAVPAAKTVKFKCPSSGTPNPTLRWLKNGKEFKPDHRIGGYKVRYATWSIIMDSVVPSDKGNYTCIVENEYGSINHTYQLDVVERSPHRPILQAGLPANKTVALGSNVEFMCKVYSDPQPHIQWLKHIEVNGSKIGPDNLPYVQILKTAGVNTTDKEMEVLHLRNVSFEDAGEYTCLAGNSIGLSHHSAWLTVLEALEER
T1 sequence (Q99N32 53-995): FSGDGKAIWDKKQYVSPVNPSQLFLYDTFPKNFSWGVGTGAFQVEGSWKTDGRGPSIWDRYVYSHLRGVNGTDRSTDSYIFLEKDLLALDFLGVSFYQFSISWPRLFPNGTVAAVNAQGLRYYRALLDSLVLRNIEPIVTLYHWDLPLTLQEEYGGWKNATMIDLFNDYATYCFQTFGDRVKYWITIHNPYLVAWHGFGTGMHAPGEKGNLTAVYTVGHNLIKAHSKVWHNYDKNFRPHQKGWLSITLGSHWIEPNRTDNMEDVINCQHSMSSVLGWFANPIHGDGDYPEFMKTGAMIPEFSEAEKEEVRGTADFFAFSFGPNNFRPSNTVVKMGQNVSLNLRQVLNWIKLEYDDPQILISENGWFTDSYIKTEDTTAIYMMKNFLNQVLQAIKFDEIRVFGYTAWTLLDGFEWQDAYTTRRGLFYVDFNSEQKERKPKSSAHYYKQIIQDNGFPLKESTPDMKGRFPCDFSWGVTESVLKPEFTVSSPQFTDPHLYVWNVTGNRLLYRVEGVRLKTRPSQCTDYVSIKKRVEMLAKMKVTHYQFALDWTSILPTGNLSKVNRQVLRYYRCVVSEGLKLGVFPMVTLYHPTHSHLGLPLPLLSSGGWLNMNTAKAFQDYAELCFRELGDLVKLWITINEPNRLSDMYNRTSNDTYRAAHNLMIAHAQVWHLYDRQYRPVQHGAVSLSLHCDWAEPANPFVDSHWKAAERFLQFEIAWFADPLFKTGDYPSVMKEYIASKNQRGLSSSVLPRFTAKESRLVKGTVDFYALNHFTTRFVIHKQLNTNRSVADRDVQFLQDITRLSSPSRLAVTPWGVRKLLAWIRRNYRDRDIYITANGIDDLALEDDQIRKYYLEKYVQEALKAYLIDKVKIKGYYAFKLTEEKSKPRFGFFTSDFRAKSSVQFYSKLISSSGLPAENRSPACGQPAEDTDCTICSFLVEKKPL
Test: SPR specificity: FGFR1c-βKlotho binding to immobilized FGF21^29-209
Set-up: species or system human FGFR1c, murine βKlotho, human FGF21
Details: 10-fold molar excess over FGFR1c-βKlotho

B1: FGF23^180-251: 72-amino acid C-terminal tail of human FGF23 (S180 to I251), expressed in E. coli (protein, listed as Homo sapiens)
chain: SAEDDSERDPLNVLKPRARMTPAPASCSQELPSAEDNSPMASDPLGVVRGGRVNTHAGGTGPEGCRPFAKFI
inhibition of FGFR1c-βKlotho binding to immobilized FGF21: did not affect; also recorded: no inhibition
